# Results from publication PMC3858558 (2013).
# Experiments:
# [1] = target: T1, [D-Trp6]LHRH (Homo sapiens, UniProt P01148, D-Trp6 analog, 125I-labeled radioligand); experiment: radioligand competition assay, tumor membranes (patient 4)
# [2] = target: T1, [D-Trp6]LHRH; experiment: radioligand competition assay, tumor membranes (patient 9)
# [3] = target: T1, [D-Trp6]LHRH; experiment: radioligand competition assay, tumor membranes (patient 6)
# [4] = target: T1, [D-Trp6]LHRH; experiment: radioligand competition assay, tumor membranes (patient 15)
# [5] = target: T1, [D-Trp6]LHRH; experiment: radioligand competition assay, tumor membranes (patient 30)
# [6] = target: T1, [D-Trp6]LHRH; experiment: radioligand competition assay, tumor membranes (patient 35)
# [7] = target: T1, [D-Trp6]LHRH; experiment: radioligand competition assay, tumor membranes (patient 12)
# [8] = target: T1, [D-Trp6]LHRH; experiment: radioligand competition assay, tumor membranes (mean of 7 specimens)
binder,measurement,setting,value
type I LHRH receptor (protein) MANSASPEQNQNHCSAINNSIPLMQGNLPTLTLSGKIRVTVTFFLFLLSATFNASFLLKLQKWTQKKEKGKKLSRMKLLLKHLTLANLLETLIVMPLDGMWNITVQWYAGELLCKVLSYLKLFSMYAPAFMMVVISLDRSLAITRPLALKSNSKVGQSMVGLAWILSSVFAGPQLYIFRMIHLADSSGQTKVFSQCVTHCSFSQWWHQAFYNFFTFSCLFIIPLFIMLICNAKIIFTLTRVLHQDPHELQLNQSKNNIPRARLKTLKMTVAFATSFTVCWTPYYVLGIWYWFDPEMLNRLSDPVNHFFFLFAFLNPCFDPLIYGYFSL,Kd,[1],1.35 nM
same,Kd,[2],3.73 nM
same,Kd,[3],1.37 nM
same,Kd,[4],4.81 nM
same,Kd,[5],6.36 nM
same,Kd,[6],2.18 nM
same,Kd,[7],6.03 nM
same,Kd,[8],3.69 nM
